B1: Cytoplasmic FMR1-interacting protein 1 (Homo sapiens), Q7L576 (parent)
chain: MAAQVTLEDALSNVDLLEELPLPDQQPCIEPPPSSLLYQPNFNTNFEDRNAFVTGIARYIEQATVHSSMNEMLEEGQEYAVMLYTWRSCSRAIPQVKCNEQPNRVEIYEKTVEVLEPEVTKLMNFMYFQRNAIERFCGEVRRLCHAERRKDFVSEAYLITLGKFINMFAVLDELKNMKCSVKNDHSAYKRAAQFLRKMADPQSIQESQNLSMFLANHNKITQSLQQQLEVISGYEELLADIVNLCVDYYENRMYLTPSEKHMLLKVMGFGLYLMDGSVSNIYKLDAKKRINLSKIDKYFKQLQVVPLFGDMQIELARYIKTSAHYEENKSRWTCTSSGSSPQYNICEQMIQIREDHMRFISELARYSNSEVVTGSGRQEAQKTDAEYRKLFDLALQGLQLLSQWSAHVMEVYSWKLVHPTDKYSNKDCPDSAEEYERATRYNYTSEEKFALVEVIAMIKGLQVLMGRMESVFNHAIRHTVYAALQDFSQVTLREPLRQAIKKKKNVIQSVLQAIRKTVCDWETGHEPFNDPALRGEKDPKSGFDIKVPRRAVGPSSTQLYMVRTMLESLIADKSGSKKTLRSSLEGPTILDIEKFHRESFFYTHLINFSETLQQCCDLSQLWFREFFLELTMGRRIQFPIEMSMPWILTDHILETKEASMMEYVLYSLDLYNDSAHYALTRFNKQFLYDEIEAEVNLCFDQFVYKLADQIFAYYKVMAGSLLLDKRLRSECKNQGATIHLPPSNRYETLLKQRHVQLLGRSIDLNRLITQRVSAAMYKSLELAIGRFESEDLTSIVELDGLLEINRMTHKLLSRYLTLDGFDAMFREANHNVSAPYGRITLHVFWELNYDFLPNYCYNGSTNRFVRTVLPFSQEFQRDKQPNAQPQYLHGSKALNLAYSSIYGSYRNFVGPPHFQVICRLLGYQGIAVVMEELLKVVKSLLQGTILQYVKTLMEVMPKICRLPRHEYGSPGILEFFHHQLKDIVEYAELKTVCFQNLREVGNAILFCLLIEQSLSLEEVCDLLHAAPFQNILPRVHVKEGERLDAKMKRLESKYAPLHLVPLIERLGTPQQIAIAREGDLLTKERLCCGLSMFEVILTRIRSFLDDPIWRGPLPSNGVMHVDECVEFHRLWSAMQFVYCIPVGTHEFTVEQCFGDGLHWAGCMIIVLLGQQRRFAVLDFCYHLLKVQKHDGKDEIIKNVPLKKMVERIRKFQILNDEIITILDKYLKSGDGEGTPVEHVRCFQPPIHQSLASS

Variants of: B1
Conditions: with if4e_human EIF4E

effect of a mutation on the interaction	Variant
decreasing interaction	D724A;R726A
decreasing interaction	K725E

Source: IntAct's records for PubMed 18805096
